Laboratory results taken from paper doi:10.1101/2025.11.04.686606, “The C-terminal intrinsically disordered region of a fungal LPMO binds copper and displays anti-fungal properties” (bioRxiv, 2025).

B1: P3 peptide, last 25 residues of PcoAA14A_dCTR (peptide, UniProt A0A2I6QAZ5 404-428, looked up)
peptide: CKPRPSGVAAQKKKRKHARHLHNAH
notes: the last 25 residues of PcoAA14A of Pycnoporus coccineus, starting with a Cys corresponding to Cys404; Unlabelled peptide in EPR and SAXS; the 5-FAM labelled form was used only on fungal spores; source: synthetic peptide, bought: GenScript
B2: PcoAA14A_FL, full-length AA14A lytic polysaccharide monooxygenase from Pycnoporus coccineus (enzyme, UniProt A0A2I6QAZ5 22-428, looked up)
chain: HAAFWDKSMYGFNVTAQTFPYDNRPQVPLYNMTFDQWWFHGHKDYPPNEGDFFELPAGGEVNSIISCDKGATPFYESSPGGDSGYGSNSPCPGQPMSEYHTTGIDDVKGCCMAIAYKPDVNDVQPDDFVVFSCNSTCVWEMNTKFEIPKLPACPEGGCHCAWFWIHSYDSGAEQIYMNGFKCKVTGDVGTQPLGKPAVPRRCGADPDHGKPDPTPGNCTIGAKTPMYWYQREGNNMFEDTYDAPYYNPLYGFNDGAQNDIFMDGVIASLASSGTGSSPTSTVDSSSSAAAASTSYPAQPTSSTQDAPGSSAYPSSSSDSVNSPTTQPYPASSASSTSEAQTTPAAVPTSVATEASSSPIASTTVDEAVVSSSTVGSINPTRSCKPRPSGVAAQKKKRKHARHLHNAH
modifications: glycosylated (glycans 34% of the molar mass by SEC-MALLS)
notes: PcoAA14A, AA14 family LPMO of Pycnoporus coccineus (syn. Trametes coccinea), Genbank KY769369; catalytic domain followed by a dCTR of 137 residues; theoretical mass 46 kDa; Expressed from pPICZalphaA; source: Pichia pastoris SuperMan5, secreted, purified (HisTrap); not shown: His6, C-terminal, kept

Key:
[1] = target: the molecule itself; test: SAXS; P3 at 2 mg/mL; conformational ensembles from 1 us MD simulations refined against SAXS data (Bayesian maximum entropy)
[2] = target: the molecule itself; test: SEC-MALLS; Superdex200 10/300 GL Increase, 50 mM MES pH 6.5, 150 mM NaCl; protein conjugate analysis for glycans

Protein | stoichiometry N [1] | stoichiometry N [2]
B1 | 2 | 
B2 |  | 2
